The values that follow come from article PMC3424542.

B1: rZ4 (ssRNA)
RNA: AAGAAGAA
B2: rZ7 (ssRNA)
RNA: AAAGAAAA
B3: rZ3 (ssRNA)
RNA: AAAGAGAA
B4: rA8 (ssRNA)
RNA: AAAAAAAA
B5: rZ2 (ssRNA)
RNA: AAGGUGAA
B6: rZ6 (ssRNA)
RNA: AAGGAAAA
B7: rZ8 (ssRNA)
RNA: AAGGGGAA
B8: rU7 (ssRNA)
RNA: UUUUUUU
B9: rlet-7f6 (ssRNA)
RNA: GGUCACACC
B10: rlet-7f2 (ssRNA)
RNA: GUCAAAC
B11: rG1 (ssRNA)
RNA: GUUUUUU
B12: rG1b (ssRNA)
RNA: GUCUUUU
B13: rlet-7f1 (ssRNA)
RNA: GUCAUAC
B14: rlet-7f4 (ssRNA)
RNA: GGUCACAC
B15: rlet-7f3 (ssRNA)
RNA: GACAAAC
B16: rlet-7f (rlet-7f0) (ssRNA)
RNA: GUCACAC
B17: rGA6 (ssRNA)
RNA: GAAAAAA
B18: dG5 (ssDNA)
DNA: TTTTGTT
B19: dA3 (ssDNA)
DNA: TTATTTT
B20: dC1 (ssDNA)
DNA: CTTTTTT
B21: dG1 (ssDNA)
DNA: GTTTTTT
B22: dT6 (ssDNA)
DNA: TTTTTT
B23: dA1 (ssDNA)
DNA: ATTTTTT
B24: dA7 (heptaadenosine) (ssDNA)
DNA: AAAAAAA
B25: dA5 (ssDNA)
DNA: TTTTATT
B26: dT9 (ssDNA)
DNA: TTTTTTTTT
B27: dG3 (ssDNA)
DNA: TTGTTTT
B28: dA2 (ssDNA)
DNA: TATTTTT
B29: dG4 (ssDNA)
DNA: TTTGTTT
B30: dC4 (ssDNA)
DNA: TTTCTTT
B31: dT8 (ssDNA)
DNA: TTTTTTTT
B32: dC7 (ssDNA)
DNA: TTTTTTC
B33: dC5 (ssDNA)
DNA: TTTTCTT
B34: dT5 (ssDNA)
DNA: TTTTT
B35: dA6 (ssDNA)
DNA: TTTTTAT
B36: dC3 (ssDNA)
DNA: TTCTTTT
B37: dG6 (ssDNA)
DNA: TTTTTGT
B38: dA4 (ssDNA)
DNA: TTTATTT
B39: dC2 (ssDNA)
DNA: TCTTTTT
B40: dG7 (heptaguanosine) (ssDNA)
DNA: GGGGGGG
B41: dG7 (position 7) (ssDNA)
DNA: TTTTTTG
B42: dT7 (ssDNA)
DNA: TTTTTTT
B43: dA7 (position 7) (ssDNA)
DNA: TTTTTTA
B44: dC6 (ssDNA)
DNA: TTTTTCT
B45: dG2 (ssDNA)
DNA: TGTTTTT

The target of the first data set is T1, XtrLin28b ZKD (Xenopus tropicalis, UniProt B4F6I0 125-175).
T1 sequence: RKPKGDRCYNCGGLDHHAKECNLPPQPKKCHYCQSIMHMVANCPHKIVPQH
As to the kind of experiment: ITC.
In general, Kd refers to a measure of binding affinity in units of concentration. Higher therefore signals lower affinity. B1 came in with a Kd of 600 ± 170 nM.
Still for that read-out and setting: the value for B2 was 6800 ± 2100 nM; that for B3 was 200 ± 30 nM.
For the molecule B4, the binding result is listed as “no binding”.
With B5, the dissociation constant Kd was determined as 32 ± 2 nM.
For B6, the binding result is recorded as “no binding”.
With B7, the binding result was “no binding”.
Same read-out and setting: the value for B8 was “no binding”.

Another data set addresses T2, XtrLin28b CSD (Xenopus tropicalis, UniProt B4F6I0 27-114).
T2 sequence: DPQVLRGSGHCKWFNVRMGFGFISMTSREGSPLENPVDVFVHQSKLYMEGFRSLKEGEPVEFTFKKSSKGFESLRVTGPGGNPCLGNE
As to the kind of experiment: ITC. On the technique in general: Isothermal titration calorimetry measures the heat released or taken up as one component is titrated into another.
In the case of B9, the Kd turned out to be 21 ± 4 nM.
Turning to B10, the Kd turned out to be 54 ± 9 nM.
In turn, B11 displayed a Kd of 35 ± 2 nM.
On to B12, for which the Kd is 27 ± 3 nM.
In turn, B13 displayed a Kd of 13 ± 2 nM.
B14 showed a Kd of 66 ± 9 nM.
In turn, B15 gave a Kd of 1360 ± 600 nM.
B16 returned a Kd of 46 ± 3 nM.
Consider B8, for which the Kd was 530 ± 65 nM.
Take B17: the binding result is recorded as “no binding”.

The target of a further data set is T2, XtrLin28b CSD. Nature of the data set: Trp fluorescence titration.
The molecule B18 displayed a Kd of 45 ± 4 nM.
The same measure, in the same setting: the value for B19 was 137 ± 10 nM; that for B20 was 45 ± 4 nM; that for B21 was 12 ± 1 nM.
Same read-out and setting: under B22 stands 169 ± 30 nM; under B23, 84 ± 5 nM.
As to B24, the binding result is on record as “no binding”.
Molecule B25 came in with a Kd of 176 ± 8 nM.
In the case of B26, the Kd is 44 ± 3 nM.
Same read-out and setting: under B27 stands 139 ± 8 nM; under B28, 311 ± 24 nM.
The same measure, in the same setting: under B29 stands 119 ± 16 nM; under B30, 73 ± 6 nM; under B31, 32 ± 1 nM.
The same measure, in the same setting: the value for B32 was 59 ± 4 nM.
The molecule B33 came in with a Kd of 154 ± 26 nM.
On the same count and under the same terms, under B34 stands 680 ± 40 nM.
Same read-out and setting: under B35 stands 147 ± 15 nM; under B36, 71 ± 3 nM; under B37, 81 ± 10 nM.
With B38, the affinity, expressed as Kd, was 124 ± 12 nM.
Consider B39, for which the Kd was 137 ± 22 nM.
B40: the binding result was “no binding”.
In turn, B41 displayed a Kd of 80 ± 10 nM.
The same measure, in the same setting: the value for B42 was 59 ± 5 nM; that for B43 was 113 ± 15 nM.
B44 registered a Kd of 87 ± 14 nM.
Molecule B45 displayed a Kd of 39 ± 4 nM.
